Measured values: article PMC11931385, “Structural and functional analysis of cancer-associated missense variants in the retinoblastoma protein pocket domain” (The Journal of Biological Chemistry, 2025)
Where a chain is given by its changes, count along the chain named. Numbers in names are those of the source. No end group written: not given here. TMR = tetramethyl rhodamine dye

B1: TMR-E2F1^TD, peptide of the E2F1 transactivation domain (peptide)
peptide: {TMR}-GEGIRDLFDCDFGDLTPLD
notes: also called E2F^TD; source: synthetic peptide, bought: GenScript
B2: TMR-E7^LxCxE, LxCxE peptide of the E7 oncoprotein from HPV (peptide)
peptide: DLYCYEQLN
modifications: also: TMR label, position not given here
notes: source: synthetic peptide, bought: GenScript

Assays:
Test in all cases: fluorescence polarisation; 25 °C; unlabeled Rb^P titrated against 1.5 nM TMR-E2F1^TD or 7.5 nM TMR-E7^LxCxE; 25 mM Tris pH 8.0, 200 mM NaCl, 1 mM DTT, 0.1% Tween-20; 2 min incubation; quadratic fit; apparent Kd for the variants, Kd for WT
Settings in all cases: both partners purified
[1] = biological target: T1, Rb^P S474N (human, UniProt P06400 380-788, S474N)
T1 construct: also called variant 12
T1 sequence (looked up): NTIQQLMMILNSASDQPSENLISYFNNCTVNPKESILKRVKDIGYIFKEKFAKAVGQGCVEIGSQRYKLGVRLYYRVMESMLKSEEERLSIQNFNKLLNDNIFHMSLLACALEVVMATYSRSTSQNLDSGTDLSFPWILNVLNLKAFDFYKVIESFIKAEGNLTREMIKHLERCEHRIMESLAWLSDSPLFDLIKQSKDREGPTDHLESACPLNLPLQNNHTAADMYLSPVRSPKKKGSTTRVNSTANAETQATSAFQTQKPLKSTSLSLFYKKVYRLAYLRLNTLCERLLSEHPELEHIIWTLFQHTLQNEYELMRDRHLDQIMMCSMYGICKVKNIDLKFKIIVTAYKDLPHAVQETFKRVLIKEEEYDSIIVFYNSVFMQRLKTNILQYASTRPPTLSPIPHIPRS

[2] = biological target: T2, Rb^P A490T (human, UniProt P06400 380-788, A490T)
T2 construct: also called variant 16
T2 sequence (looked up): T1 sequence (looked up) with N95S, A111T

[3] = biological target: T3, Rb^P S443L (human, UniProt P06400 380-788, S443L)
T3 construct: also called variant 2
T3 sequence (looked up): T1 sequence (looked up) with S64L, N95S

[4] = biological target: T4, Rb^P R668H (human, UniProt P06400 380-788, R668H)
T4 construct: also called variant 52
T4 sequence (looked up): T1 sequence (looked up) with N95S, R289H

[5] = biological target: T5, Rb^P R451S (human, UniProt P06400 380-788, R451S)
T5 construct: also called variant 7
T5 sequence (looked up): T1 sequence (looked up) with R72S, N95S

Binder	Kd [1]	Kd [2]	Kd [3]	Kd [4]	Kd [5]
B1	19 nM	59 nM	31 nM	13 nM	26 nM
B2	8 nM	13 nM	9 nM	7 nM	9 nM
